In test [1] the target is Mycobacterium leprae small heat shock protein (sHsp18) (Mycobacterium leprae). The test can be described thus: SEC; as a1 but after extended dialysis against PBS; data not shown. For orientation: Size exclusion chromatography separates by hydrodynamic size, large species first.
Test [2] has the same target. Nature of the test: SEC; Sephacryl column; sHsp18 purified by denaturing method, dialysed against 50 mM PBS with 200 mM NaCl, pH 7.2, 4°C, 6 hrs, acetone precipitated, resuspended in PBS.
Test [3] has the same target. Nature of the test: native gel or EMSA; non-denaturing 7.5% polyacrylamide gel of MagneHis-purified sHsp18, against high molecular weight markers, Coomassie stain.

As a reminder, the stoichiometry N is the number of molecules, sites or subunits per partner or assembly. For “Mycobacterium leprae small heat shock protein (sHsp18) (natural protein)”, the stoichiometry N in test [1] was 9; in test [2] it was 6; in test [3], 9.
